{
  "source": "the DeepSol protein solubility set",
  "data": [
    {"assay": "soluble on expression in E. coli; label from the status in PepcDB or PDB records", "values": [
      {"sequence": "MAAQVTLEDALSNVDLLEELPLPDQQPCIEPPPSSLLYQPNFNTNFEDRNAFVTGIARYIEQATVHSSMNEMLEEGQEYAVMLYTWRSCSRAIPQVKCNEQPNRVEIYEKTVEVLEPEVTKLMNFMYFQRNAIERFCGEVRRLCHAERRKDFVSEAYLITLGKFINMFAVLDELKNMKCSVKNDHSAYKRAAQFLRKMADPQSIQESQNLSMFLANHNKITQSLQQQLEVISGYEELLADIVNLCVDYYENRMYLTPSEKHMLLKVMGFGLYLMDGSVSNIYKLDAKKRINLSKIDKYFKQLQVVPLFGDMQIELARYIKTSAHYEENKSRWTCTSSGSSPQYNICEQMIQIREDHMRFISELARYSNSEVVTGSGRQEAQKTDAEYRKLFDLALQGLQLLSQWSAHVMEVYSWKLVHPTDKYSNKDCPDSAEEYERATRYNYTSEEKFALVEVIAMIKGLQVLMGRMESVFNHAIRHTVYAALQDFSQVTLREPLRQAIKKKKNVIQSVLQAIRKTVCDWETGHEPFNDPALRGEKDPKSGFDIKVPRRAVGPSSTQLYMVRTMLESLIADKSGSKKTLRSSLEGPTILDIEKFHRESFFYTHLINFSETLQQCCDLSQLWFREFFLELTMGRRIQFPIEMSMPWILTDHILETKEASMMEYVLYSLDLYNDSAHYALTRFNKQFLYDEIEAEVNLCFDQFVYKLADQIFAYYKVMAGSLLLDKRLRSECKNQGATIHLPPSNRYETLLKQRHVQLLGRSIDLNRLITQRVSAAMYKSLELAIGRFESEDLTSIVELDGLLEINRMTHKLLSRYLTLDGFDAMFREANHNVSAPYGRITLHVFWELNYDFLPNYCYNGSTNRFVRTVLPFSQEFQRDKQPNAQPQYLHGSKALNLAYSSIYGSYRNFVGPPHFQVICRLLGYQGIAVVMEELLKVVKSLLQGTILQYVKTLMEVMPKICRLPRHEYGSPGILEFFHHQLKDIVEYAELKTVCFQNLREVGNAILFCLLIEQSLSLEEVCDLLHAAPFQNILPRVHVKEGERLDAKMKRLESKYAPLHLVPLIERLGTPQQIAIAREGDLLTKERLCCGLSMFEVILTRIRSFLDDPIWRGPLPSNGVMHVDECVEFHRLWSAMQFVYCIPVGTHEFTVEQCFGDGLHWAGCMIIVLLGQQRRFAVLDFCYHLLKVQKHDGKDEIIKNVPLKKMVERIRKFQILNDEIITILDKYLKSGDGEGTPVEHVRCFQPPIHQSLASS", "soluble on expression in E. coli": "not soluble"},
      {"sequence": "MSLRIAVDAMGGDHAPKAVIDGVIKGIEAFDDLHITLVGDKTTIESHLTTTSDRITVLHADEVIEPTDEPVRAVRRKKNSSMVLMAQEVAENRADACISAGNTGALMTAGLFIVGRIKGIDRPALAPTLPTVSGDGFLLLDVGANVDAKPEHLVQYAIMGSVYSQQVRGVTSPRVGLLNVGTEDKKGNELTKQTFQILKETANINFIGNVEARDLLDDVADVVVTDGFTGNVTLKTLEGSALSIFKMMRDVMTSTLTSKLAAAVLKPKLKEMKMKMEYSNYGGASLFGLKAPVIKAHGSSDSNAVFRAIRQAREMVSQNVAALIQEEVKEEKTDEEGGSHHHHHH", "soluble on expression in E. coli": "soluble"},
      {"sequence": "KKIIHELLDDILFFETAPTIHKVILHGKNRQVEFYGKLKSIEKMLDESFYRCHRSYIVNKKNIHELDTTKGVVKMSNGENCYASSKLIKSLSL", "soluble on expression in E. coli": "not soluble"},
      {"sequence": "GPGSMLAAVAVPSSSSSTAPGTNTAVSDYFLQKIHELRATQKRTLDNFERLEAQRNDLNRRVRHLKEEVQMLQESGSLVVDVVRVMGKNKVLVKAGSGQGKMVVDVDKSVDFKDLTPNARVALRSGTSAIHYILPTKVDPLVSLMKVEKAGKESTYDEIGGLSRQVKEIKEVIELPVKHPKLFEALGIEQPKGVLLYGPPGTGKTLLARAVAHHTDCTFIRVSGAELVQKYIGEGARMVRELFVMAREHSPSIIFMDEIDSIGSSRLESGENGDSEVQRTMLELLNQLDGFEASKNIKVIMATNRMDILDEALLRPGRIDRKIEFPAPDEAARFEILKIHSRKMNLTRGIDLKDIAKKTSNCSGAELKAVCTEAGMFALRERRVHITHEDFVLAVAKVMHKDQDKNVSLKKMWK", "soluble on expression in E. coli": "not soluble"},
      {"sequence": "GELFIKELLWMLRHQKDIFNNLARQFQKEVLCPNKCGVMSQTLIWCLKCEKQLHICRKSLDCGERHIEVHRSEDLVLDCLLSWHRASKGLTDYSFYRVWENSSETLIAKGKEPYLTKSMVGPEDAGNYRCVLDTINQGHATVIRYDVTVLPPKHSEENQPP", "soluble on expression in E. coli": "not soluble"},
      {"sequence": "VKEIIDGFLKFQREAFPKREALFKQLATQQSPRTLFISCSDSRLVPELVTQREPGDLFVIRNAGNIVPSYGPEPGGVSASVEYAVAALRVSDIVICGHSNCGAMTAIASCQCMDHMPAVSHWLRYADSARVVNEARPHSDLPSKAAAMVRENVIAQLANLQTHPSVRLALEEGRIALHGWVYDIESGSIAAFDGATRQFVPLAANPRVCAIPLRQPTAA", "soluble on expression in E. coli": "soluble"},
      {"sequence": "SRKRLSAPELRLSLTKGPGNDGASPTQSAPSSPDGSSDLEIDELETPSDSEQLDSGHEFEWEDELPRAEGLGTSETAERLGRGCMWDVTGEDGHHWRVFRMGPREQRVDMTVIEPYKKVLSHGGYHGDGLNAVILFASCYLPRSSIPNYTYVMEHLFRYMVGTLELLVAENYLLVHLSGGTSRAQVPPLSWIRQCYRTLDRRLRKNLRALVVVHATWYVKAFLALLRPFISSKFTRKIRFLDSLGELAQLISLDQVHIPEAVRQLDRDLHGSGGT", "soluble on expression in E. coli": "soluble"},
      {"sequence": "MAHHHHHHSLIQAVLFDLDGTLADTALDLGGALNTLLARHGLPAKSMDEIRTQASHGAAGLIKLGAGITPDHPDYARWRTEYLDEYDSRYAQDTTLFDGVNELIAELGKRGIKWGIITNKPMRFTDKLVPKLGFIIPPAVVVSGDTCGEPKPSVKPMLYACGQIHADPQHTLYVGDAERDIQAGRNAGMTTVLAEWGYIAPEDDTGSWQADFHIRTPLDLLECLDKIQPEG", "soluble on expression in E. coli": "soluble"},
      {"sequence": "MAGLFDKQADLYLDARPNYPSEWFSKLADLTDHHGLAWDAATGNGQAALAVAEHYESVVATDVSESQLKLATPHPKINYRHTPTSMTDDELVELIGGENSVDLITVAQGVHWFDLPRFYSVATRLLRKPGGIIAVWGYNDVIVSPEFDAVQYRLHATTLPFWKYPYIQHIFDSYEALPFPFENVGMGSEGEPLKLEMPKTTSFEGIIRMFKSWSAIVTAREKGVELLPESLVRELETAWGGSDLVRSVVYKAFMIAGKVRV", "soluble on expression in E. coli": "soluble"},
      {"sequence": "MGSDKIHHHHHHMTALTPAAFHSDRNRHDAHVARIREVRPGLRIHSDDATDEFDAVMSGQCSPGLHLVLLLEGALDVSYGSRRVVLTTDGRRTGRADRDAVRPAVRMQSFLLNAVEPDTFRRRLSKGGYARRLSLAMSGEWLGHLQAASRGVLPEQLGTMLSAHLAIRFWQPTPRATALAEQIVRPPAYQPMLQAIYLESRVLELLAEAFTPLETDAAQAADASLGSRDYRRMAELRAFLASDAAQALSIDDIARHAGMSANAMQRQFRAAYGTTVFDFVREHHLQRARLALERDAVSVKQAAALAGYTSAANFATAYKRRFGVTPTLARRSDKR", "soluble on expression in E. coli": "not soluble"},
      {"sequence": "MGSDKIHHHHHHMTNWLPDLTGGAGPLYQRLADSVEAGIDQGVIGAGTKLPPQRDLAYDIGTTVGTVGRAYQLLRERGLVSGEVGRGTYVLGRRADGVKPEAPDVSVEGTRYVDAPQDKLRFDSTAAPDVGQGAVVADVLSRTAQDHPHEISSYTRDFPGRWYEAGARWLARNSFRPAADGIVPTLGTHAAVMAAIAALTTPGDYVAFEHLTYSQISRSAGLIGRRTALVASDDEGLDPADFERVCAQKHPRMIFLMPTAQNPTLTTLSAGRREAIARVAREYNVILIEDDLYGHLTDDPTPLLAEYAPERTIVAGGLSKSVAAGIRGGWLSCPPAYRHRIRVAHKMMTGGMPFLLAEVNTRLVLSGQASDIRKRCIAEISARIAIVRETLAGFAFKSHDKVPFVWLTLPDPWLSGTFKNACLEHGVLIDDEDEFKAGRSEQVFHGVRFGTSQPRQRGDVANGVAVIRRLLDEGRAGYDSFS", "soluble on expression in E. coli": "not soluble"},
      {"sequence": "MPMTLDLQPGQRLARGVARHLRAHGFVSVEEFVPARGLRVDVMGLGPKGEIWVIECKSSRADFQADAKWQGYLEWCDRYFWAVDMEFPAELLPAESGLLIADAYDAEIVRMAPEQKLAPARRKVLIQKFATHAARRLQALRDPEGHG", "soluble on expression in E. coli": "not soluble"},
      {"sequence": "MGTETVSFKWEGKKVAQVNGVTAEKVWSVFSDFCNVQEWFPSVDTCYRVQGTDGVPGLIRYCSTTKTKEEGSRWAKEKLVKIDPIGRCLSYEILENNVGFRSYVATVQVTPVDGEDQVSRIEWSFVADPVDGWKKEDLESYVDFCLQHMANKMELNL", "soluble on expression in E. coli": "soluble"},
      {"sequence": "QDSLPDTKASGPAHSKEVPALTAVETGATNPLAPSDTVQTRHVVQRRSRSESTIESFFARGACVAIIEVDNEQPTTRAQKLFAMWRITYKDTVQLRRKLEFFTYSRFDMEFTFVVTANFTNANNGHALNQVYQIMYIPPGAPTPKSWDDYTWQTSSNPSIFYTYGAAPARISVPYVGLANAYSHFYDGFAKVPLKTDANDQIGDSLYSAMTVDDFGVLAVRVVNDHNPTKVTSKVRIYMKPKHVRVWCPRPPRAVPYYGPGVDYRNNLDPLSEKGLTTY", "soluble on expression in E. coli": "soluble"},
      {"sequence": "MGSDKIHHHHHHMESAIDKHLVCPRTLSRRVADDYQPPFPMYVARAAEDLSQVVMGYFGVQYRGADQRSVALAALRRIVADFDAPDGPGNHDLTQHTDNQGYDNLIAVGYWRDPDAYARWIASPAVAEWWASDARLADGIGYFREIVAPRAEQFETLYAFTNDFPGVGSIMDGVSGEIEEHGYWGSMRDRFPISQTDWMHADGELRIVAGDPARGGRVVVLAHDNIALIRSGQDWRAAEDDERRLYLDEIEPTLRSGMDFLRDNGVDVGCYSNRYVRSIDLDGNLLDESYNIGHWRSLDRLERWAESHPTHLRIFVTFFRVVTGLSKLRLYHEVSVFDAKHQVYEYVNCHPTTGMMRDAVAR", "soluble on expression in E. coli": "not soluble"},
      {"sequence": "MTTTDVSWPKSLWHAVTGPGPGLPALHGAEEADVVVVGGGFSGLSTALHLREAGVDVAVVEAAEPGWGASGRNNGQVIPTLSRPDPEDIVAKHGAAGERLVGLIRDSASILFDVAKRHGVDAEQEQNGWVQPVHSPGRIKIAERRFRQWSKFGAPVELLSRDQVRDMLGSEAWFGGFWNRTGGHVNPLALARGLARAVLAQGGRIFARSPAVSIERRGDRWIVKTAQGEISGRALVVASNAYTGEFSKTLAPAIASEVMPVRSWQMATQPLSDNVRKTIIPGRQAMSDTHGELIFGRFDARNRFVTGGAIIRPFNQIATLKARVGKRLQRLWPQIGEVRFDYVWNGFIGMTTDYLPHIHRLGPNAYGWTGCNGRGVALSVALGRELSKAVRGVTDGELALPFTEPTPIPANELLRPFAPLMMVLYRHRDAKEIGLEHHHHHH", "soluble on expression in E. coli": "not soluble"},
      {"sequence": "MAHHHHHHMNSNPTTEMTTTKKEHSQDNMCEIMNKSDKNNNSSLSSRSEKSQSEEIKLCNSGIFNEDKEKQYNDFLKSYNAEYSVEQMKNFLKNGITENGVRILTTDKCSWLYDYYRITKTSDPCVKELTGNTTVDYYYYTTPFSTQIGNINLVMMHSQVNFGDGTCAPADRFFKMNSTTPEMIKEAKLKAKNFQYECMQYI", "soluble on expression in E. coli": "not soluble"},
      {"sequence": "SAGNAEPPPAGAACPQDRRSCSGRAGGDRVWEDGEHPAKKLKSGGDEERREKPPKRKIVLLMAYSGKGYHGMQRNVGSSQFKTIEDDLVSALVRSGCIPENHGEDMRKMSFQRCARTDKGVSAAGQVVSLKVWLIDDILEKINSHLPSHIRILGLKRVTGGFNSKNRCDARTYCYLLPTFAFAHKDRDVQDETYRLSAETLQQVNRLLACYKGTHNFHNFTSQKGPQDPSACRYILEMYCEEPFVREGLEFAVIRVKGQSFMMHQIRKMVGLVVAIVKGYAPESVLERSWGTEKVDVPKAPGLGLVLERVHFEKYNQRFGNDGLHEPLDWAQEEGKVAAFKEEHIYPTIIGTERDERSMAQWLSTLPIHNFSATALTAGGTGAKVPSPLEGSEGDGDTD", "soluble on expression in E. coli": "soluble"},
      {"sequence": "PEFMVTTEPALADLQEQLYNGNEKSQLAAMSTLSTAGTEGYHLLQEFLKDSATFSPPPAPWIRGQAYRLLFHSPEASVQAFLQQHYPQGVIPLRSDRGVDYQELAKLFVAEKFEAADRLTTQKLCELAGPLAQKRRWLYFTEVEQLPIPDLQTIDQLWLAFSLGRFGYSVQRQLWLGCGQNWDRLWEKIGWRQGKRWPRYPNEFIWDLSAPRGHLPLTNQLRGVQVLNALLNHPAWTA", "soluble on expression in E. coli": "soluble"}
    ]}
  ]
}
